One block for each binder: values may come before it.
Key:
Assay in all cases: SPR; antibody captured in bivalent format
[1] = biological target: T1, human CD180 extracellular domain (ECD) HIS-tagged protein (Sino Biological, 11370-H08H) (human, UniProt Q99467 24-626)
T1 chain: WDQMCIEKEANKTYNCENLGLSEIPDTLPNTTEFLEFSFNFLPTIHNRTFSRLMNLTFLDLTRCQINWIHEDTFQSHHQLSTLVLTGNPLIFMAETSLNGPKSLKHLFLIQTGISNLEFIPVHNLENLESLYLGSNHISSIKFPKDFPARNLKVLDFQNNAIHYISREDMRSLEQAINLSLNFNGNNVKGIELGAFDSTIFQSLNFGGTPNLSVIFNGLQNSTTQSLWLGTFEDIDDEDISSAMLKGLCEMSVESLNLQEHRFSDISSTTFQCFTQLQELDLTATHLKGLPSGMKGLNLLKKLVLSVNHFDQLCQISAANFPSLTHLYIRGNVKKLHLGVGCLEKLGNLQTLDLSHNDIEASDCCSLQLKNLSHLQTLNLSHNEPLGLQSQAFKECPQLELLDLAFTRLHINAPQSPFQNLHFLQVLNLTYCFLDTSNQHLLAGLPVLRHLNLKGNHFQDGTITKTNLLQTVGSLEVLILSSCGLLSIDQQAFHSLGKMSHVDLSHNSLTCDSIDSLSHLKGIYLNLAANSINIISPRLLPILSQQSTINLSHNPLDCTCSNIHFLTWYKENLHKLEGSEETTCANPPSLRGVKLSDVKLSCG

[2] = biological target: T2, human CD180 extracellular domain (ECD) HIS-tagged protein (Creative Biomart, CD180-3900H) (human, UniProt Q99467 24-626)
T2 chain: T1 chain

[3] = biological target: T3, His-tagged rhesus CD180 from Creative Biomart (CD180-1598R) (rhesus, UniProt F7GX75 24-626)
T3 chain: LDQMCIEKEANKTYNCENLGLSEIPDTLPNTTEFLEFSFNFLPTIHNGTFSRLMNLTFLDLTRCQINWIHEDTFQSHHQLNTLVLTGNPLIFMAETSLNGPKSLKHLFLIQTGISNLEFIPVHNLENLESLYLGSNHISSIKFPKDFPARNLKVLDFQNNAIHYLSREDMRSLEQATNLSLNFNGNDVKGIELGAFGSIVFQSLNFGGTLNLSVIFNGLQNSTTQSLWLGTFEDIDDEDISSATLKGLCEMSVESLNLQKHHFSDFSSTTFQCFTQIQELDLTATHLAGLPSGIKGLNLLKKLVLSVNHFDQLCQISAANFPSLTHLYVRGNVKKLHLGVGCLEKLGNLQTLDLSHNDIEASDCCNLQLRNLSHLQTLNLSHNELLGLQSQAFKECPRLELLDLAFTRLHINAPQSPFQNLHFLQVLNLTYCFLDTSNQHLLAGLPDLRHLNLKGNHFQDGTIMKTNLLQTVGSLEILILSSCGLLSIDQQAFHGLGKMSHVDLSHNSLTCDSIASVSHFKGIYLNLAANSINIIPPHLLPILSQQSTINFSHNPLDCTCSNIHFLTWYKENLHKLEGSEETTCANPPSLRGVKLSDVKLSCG

Kd [1]: 3.4 nM
Kd [2]: 4.7 nM
Kd [3]: 0.05 nM
B1: Ab-007 (antibody, V domains shown)
VH: EVQLVESGGGVVRPGGSLRLSCAASGFTFDDYAMSWVRQAPGKGLEWVSDINWNGGTTSYADSVKGRFTISRDNAKNSLFLQMNSLRAEDTALYYCARKGRDTVVVKGYYYFSYYMDVWGKGSTVTVSS
VL: not shown

Kd [1]: 6.8 nM
Kd [2]: 12 nM
Kd [3]: 0.4 nM
B2: Ab-006 (antibody, V domains shown)
VH: EVQLVESGGGLVKPGGSLRLSCTASGFTFDDYDMTWVRQAPGKGLEWVSGINWNGGNTDYADSVKGRFTISRDNTKNSLYLQMNSLRAEDTALYYCARKGRDIVVVKGFYYHYYYMDVWGKGITVTVSS
VL: not shown

Reference: patent publication US20260232824A1 (published 2026)
